{"source": "patent US9408889B2", "about": "“Fusion peptide designed to reduce plaque bacteria and yeast in the oral cavity” (RUTGERS, THE STATE UNIVERSITY OF NEW JERSEY, priority 2011, dated 2016)", "origin": "cited, not measured here", "molecules": {"B1": {"name": "arginine variant: full length lactoferrin (Lf) variant with arginine at position 29, the more common variant (protein, UniProt P02788 1-710, looked up)", "chain": "MKLVFLVLLFLGALGLCLAGRRRSVQWCAVSQPEATKCFQWQRNMRKVRGPPVSCIKRDSPIQCIQAIAENRADAVTLDGGFIYEAGLAPYKLRPVAAEVYGTERQPRTHYYAVAVVKKGGSFQLNELQGLKSCHTGLRRTAGWNVPIGTLRPFLNWTGPPEPIEAAVARFFSASCVPGADKGQFPNLCRLCAGTGENKCAFSSQEPYFSYSGAFKCLRDGAGDVAFIRESTVFEDLSDEAERDEYELLCPDNTRKPVDKFKDCHLARVPSHAVVARSVNGKEDAIWNLLRQAQEKFGKDKSPKFQLFGSPSGQKDLLFKDSAIGFSRVPPRIDSGLYLGSGYFTAIQNLRKSEEEVAARRARVVWCAVGEQELRKCNQWSGLSEGSVTCSSASTTEDCIALVLKGEADAMSLDGGYVYTAGKCGLVPVLAENYKSQQSSDPDPNCVDRPVEGYLAVAVVRRSDTSLTWNSVKGKKSCHTAVDRTAGWNIPMGLLFNQTGSCKFDEYFSQSCAPGSDPRSNLCALCIGDEQGENKCVPNSNERYYGYTGAFRCLAENAGDVAFVKDVTVLQNTDGNNNEAWAKDLKLADFALLCLDGKRKPVTEARSCHLAMAPNHAVVSRMDKVERLKQVLLHQQAKFGRNGSDCPDKFCLFQSETKNLLFNDNTECLARLHGKTTYEKYLGPQYVAGITNLKKCSTSPLLEACEFLRK", "modifications": "full-length", "notes": "full length lactoferrin (Lf) variant with arginine at position 29, the more common variant"}}, "tested_on": "Streptococcus mutans", "details": "full length Lf variant expressed in an insect vector", "data": [{"molecule": "B1", "values": [{"measurement": "effect on survival of S. mutans", "value": "little to no effect"}]}]}
